Our source for the response values is article PMC9071441 (2022).

First the molecules themselves.
B1: mNeonGreen-tagged T-bet DNA binding domain (aa 135-326), wild type [mouse] / mTagBFP-tagged GATA3 DNA binding domain (aa 259-369) [not stated] (parent complex)
chain 1: KLRVALSNHLLWSKFNQHQTEMIITKQGRRMFPFLSFTVAGLEPTSHYRMFVDVVLVDQHHWRYQSGKWVQCGKAEGSMPGNRLYVHPDSPNTGAHWMRQEVSFGKLKLTNNKGASNNVTQMIVLQSLHKYQPRLHIVEVNDGEPEAACSASNTHVFTFQETQFIAVTAYQNAEITQLKIDNNPFAKGFREN
chain 2: not shown

In this assay the parent is B1. Description: flow-cytometric FRET; HEK293T cells; parent: 0.036; read off a plot.
Regarding chain 1 Q126A, the response was around 0.031 DFRET. With chain 1 E76A, the response was around 0.043 DFRET. With chain 1 K26A, the response was around 0.018 DFRET.

chain 1 R29A, chain 1 R30A: the response was around -0.004 DFRET. For the variant chain 1 R190W, the response was around -0.001 DFRET. Consider chain 1 K113L, for which the response was around 0.041 DFRET. To chain 1 I123E belongs around -0.001 DFRET; to chain 1 V124W, around 0.025 DFRET.
